Results as given in patent publication US20210284747A1 (CAPELLA BIOSCIENCE, published 2021).
Where a chain is given by its changes, count along the chain named. In names and notes the source's numbering stands.

T1: Human LIGHT-32L, on II23 cells (human, UniProt O43557 1-240)
T1 construct: also called II23-LIGHT 32L
T1 chain: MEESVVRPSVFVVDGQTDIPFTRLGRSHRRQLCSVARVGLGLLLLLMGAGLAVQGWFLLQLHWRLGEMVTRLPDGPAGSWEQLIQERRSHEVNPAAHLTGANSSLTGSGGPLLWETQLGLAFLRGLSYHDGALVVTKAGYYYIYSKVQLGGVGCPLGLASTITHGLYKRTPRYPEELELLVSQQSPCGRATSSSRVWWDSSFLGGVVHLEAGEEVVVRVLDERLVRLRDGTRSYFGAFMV

B1: 3E09 chimeric IgG4 mAb (antibody, V domains shown)
VH: EVQLVESGGGLVKPGGSLKLSCEASGFTFSDYYMYWVRQTPEKRLEWVAAIGDGGIYTYYADTVKGRFTISRDNAKNILYLQMSSLKSNDTAMYYCARGTGDGFAYWGQGTLVTVS
VL: DIVLTQSPASLAVSLGQRATISCRASESVDSYGNSFMHWYQQKPGQPPKLLIYLASNLESGVPARFSGSGSRTDFTLTIDPVEADDAATYYCQQNNEDPYTFGGGTKLEIK
notes: Chimeric human IgG4 (S-to-P, L-to-E) with human CL, as m1; also called Parental 3E09
B2: 3A07 chimeric IgG4 mAb (antibody, V domains shown)
VH: QVQLQQSGAELVRPGAPVTLSCKASDYTFTDSEIHWVKQTPVHGLEWIGEIDPETGGTAYNQKFKGKATLTADKSSSTAYMELRSLTSEDSAVYYCSRETDYFFDYWGQGTTLTVSS
VL: ENVLTQSPAIMSASPGEKVTMTCSASSSVSYMYWYQQRPGSSPRLLIYDTSNLASGVPVRFSGSGSGTSYSLTISRMEAEDAATYYCQQWSSYPLTFGSGTKLEIK
notes: Chimeric human IgG4 (S-to-P, L-to-E) with human CL, as m1; also called Parental 3A07
B3: 3C10 chimeric IgG4 mAb (antibody, V domains shown)
VH: B2 VH with Q1E, P17S
VL: B2 VL with E1D, N2V, L4M, S7T, R38K, S99A, I105L
notes: Chimeric human IgG4 (S-to-P, L-to-E) with human CL, as m1; also called Parental 3C10
B4: 2E08 chimeric IgG4 mAb (antibody, V domains shown)
VH: QVQMKESGAELVRPGVSVKISCKGSGYTFTDYAIHWVKQSHAKTLEWIGVISTYYGDASYNQKFKGKATMTVDKSSSTAYMELARLTSDDSAIYYCARSRGEYGNYDAMDYWGQGTSVTVSS
VL: DIVLTQSPASLAVSLGQRATISCKASQSVDYDGDSYMNWYQQKPGQPPKLLIYAASNLESGIPARFSGSGSGTDFTLNIHPVEEEDAATYYCQQSNEDPLTFGAGTKLELK
notes: Chimeric human IgG4 (S-to-P, L-to-E) with human CL, as m1; also called Parental 2E08
B5: 3B04_var3 (antibody, V domains shown)
VH: QVQLVQSGAEVKKPGASVKVSCKASGYTFTDYEMHWVRQAPGQGLEWMGEIDPETGDTAYAQKFQGRVTLTADKSTSTAYMEFSSLRSEDTAVYYSCRETDYFFDYWGQGTLVTVSS
VL: DIQMTQSPSSLSASVGDRVTITCGASENIYGALNWYQRKQGKAPQLLIYGATNLADGVSSRFSGSGSGRDYTLTISSLQPEDFATYYCQNVLTTPWTFGQGTKLEIKR
notes: Human IgG4 (S241P, L248E, Kabat); also called 3B04VH3VK1
B6: 3B04_var7 (antibody, V domains shown)
VH: B5 VH
VL: B5 VL with Q45K, S59P
notes: Human IgG4 (S241P, L248E, Kabat); also called 3B04VH3VK2
B7: 3B04_var11 (antibody, V domains shown)
VH: B5 VH
VL: B5 VL with R38Q, Q40P, Q45K, S59P
notes: Human IgG4 (S241P, L248E, Kabat); also called 3B04VH3VK3

biological target: Full length LIGHT R195A on HEK293FF cells (Homo sapiens (Human), UniProt O43557 1-240); experiment: flow cytometry, HEK293FF, mAb at EC50
Sequence (O43557 whole entry R195A): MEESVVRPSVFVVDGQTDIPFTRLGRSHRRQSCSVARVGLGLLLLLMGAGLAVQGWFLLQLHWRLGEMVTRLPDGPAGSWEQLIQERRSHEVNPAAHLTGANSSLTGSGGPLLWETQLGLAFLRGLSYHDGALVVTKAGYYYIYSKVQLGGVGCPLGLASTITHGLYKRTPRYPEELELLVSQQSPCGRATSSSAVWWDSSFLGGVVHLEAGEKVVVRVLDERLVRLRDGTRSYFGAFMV
Procedure: (§1) The day of transfection the cells were seeded in a 24-well plate at 0.6×10⁶ cells/well. Lipofectamine 2000 (ThermoFisher scientific), 3 ul, was mixed with 50 μl OptiMEM medium (GIBCO) and then added to 50 μl Opti-MEM medium containing 3 ug plasmid DNA and incubated for 20 min at RT to form DNA-Lipofectamine 2000 complexes which were then added to the HEK293FF cells and incubated at 37° C., 5% CO₂ for 24 hours. For each construct, in duplicate, 0.60×10⁶ cells/well were used in a 96 well round bottom plate. Cells were centrifuged for 3 minutes at 300×g at 4° C., the supernatant discarded and the cells washed with 150 μl FACS buffer (0.5% FBS in phosphate buffered saline). This process was repeated 3 times. […] The wells were washed 3 times as above and 50 μl/well of goat anti-human IgG FITC (1:1500 dilution in FACS buffer, SIGMA F9512-2ML) or goat anti-mouse APC (1/500 dilution in FACS buffer, BDBioscience 550826), as appropriate, was added to the wells and incubated for 30 min at 4° C. protected from the light, with shaking. The cells were then washed as above, resuspended in 100 μl of FACS buffer and binding of the antibodies to the constructs was measured using flow cytometry and a total of 10,000 cells were acquired for each sample. Controls of buffer and secondary antibody only as well as HEK293FF non transfected cells were also used.

| % of WT binding [%] | Binder |
| --- | --- |
| 1 | B1 |
| 15 | B2 |
| 6 | B3 |
| 43 | B4 |

biological target: Full length LIGHT S192A on HEK293FF cells (Homo sapiens (Human), UniProt O43557 1-240); experiment: flow cytometry, HEK293FF, mAb at EC50
Sequence (O43557 whole entry S192A): as the sequence (O43557 whole entry R195A) above, with S192A, A195R counted along it
Procedure: as §1

| % of WT binding [%] | Binder |
| --- | --- |
| 50 | B1 |
| 41 | B2 |
| 35 | B3 |
| 122 | B4 |

biological target: Full length LIGHT A190S on HEK293FF cells (Homo sapiens (Human), UniProt O43557 1-240); experiment: flow cytometry, HEK293FF, mAb at EC50
Sequence (O43557 whole entry A190S): as the sequence (O43557 whole entry R195A) above, with A190S, A195R counted along it
Procedure: as §1

| % of WT binding [%] | Binder |
| --- | --- |
| 97 | B1 |
| 47 | B2 |
| 40 | B3 |
| 93 | B4 |

biological target: Full length LIGHT R189A on HEK293FF cells (Homo sapiens (Human), UniProt O43557 1-240); experiment: flow cytometry, HEK293FF, mAb at EC50
Sequence (O43557 whole entry R189A): as the sequence (O43557 whole entry R195A) above, with R189A, A195R counted along it
Procedure: as §1

| % of WT binding [%] | Binder |
| --- | --- |
| 1 | B1 |
| 0 | B2 |
| 0 | B3 |
| 2 | B4 |

biological target: Full length LIGHT V196A on HEK293FF cells (Homo sapiens (Human), UniProt O43557 1-240); experiment: flow cytometry, HEK293FF, mAb at EC50
Procedure: as §1

| % of WT binding [%] | Binder |
| --- | --- |
| 34 | B1 |
| 77 | B2 |
| 78 | B3 |
| 99 | B4 |

biological target: Full length LIGHT W197A on HEK293FF cells (Homo sapiens (Human), UniProt O43557 1-240); experiment: flow cytometry, HEK293FF, mAb at EC50
Sequence (O43557 whole entry W197A): as the sequence (O43557 whole entry R195A) above, with A195R, W197A counted along it
Procedure: as §1

| % of WT binding [%] | Binder |
| --- | --- |
| 1 | B1 |
| 1 | B2 |
| 0 | B3 |
| 0 | B4 |

biological target: Full length LIGHT W198A on HEK293FF cells (Homo sapiens (Human), UniProt O43557 1-240); experiment: flow cytometry, HEK293FF, mAb at EC50
Sequence (O43557 whole entry W198A): as the sequence (O43557 whole entry R195A) above, with A195R, W198A counted along it
Procedure: as §1

| % of WT binding [%] | Binder |
| --- | --- |
| 48 | B1 |
| 82 | B2 |
| 86 | B3 |
| 83 | B4 |

biological target: Full length LIGHT G188A on HEK293FF cells (Homo sapiens (Human), UniProt O43557 1-240); experiment: flow cytometry, HEK293FF, mAb at EC50
Sequence (O43557 whole entry G188A): as the sequence (O43557 whole entry R195A) above, with G188A, A195R counted along it
Procedure: as §1

| % of WT binding [%] | Binder |
| --- | --- |
| 35 | B1 |
| 5 | B2 |
| 3 | B3 |
| 44 | B4 |

biological target: Full length LIGHT T191A on HEK293FF cells (Homo sapiens (Human), UniProt O43557 1-240); experiment: flow cytometry, HEK293FF, mAb at EC50
Sequence (O43557 whole entry T191A): as the sequence (O43557 whole entry R195A) above, with T191A, A195R counted along it
Procedure: as §1

| % of WT binding [%] | Binder |
| --- | --- |
| 88 | B1 |
| 4 | B2 |
| 3 | B3 |
| 22 | B4 |

biological target: Full length LIGHT S193A on HEK293FF cells (Homo sapiens (Human), UniProt O43557 1-240); experiment: flow cytometry, HEK293FF, mAb at EC50
Procedure: as §1

| % of WT binding [%] | Binder |
| --- | --- |
| 0 | B1 |
| 0 | B2 |
| 0 | B3 |
| 0 | B4 |

biological target: Full length LIGHT S194A on HEK293FF cells (Homo sapiens (Human), UniProt O43557 1-240); experiment: flow cytometry, HEK293FF, mAb at EC50
Sequence (O43557 whole entry S194A): as the sequence (O43557 whole entry R195A) above, with S194A, A195R counted along it
Procedure: as §1

| % of WT binding [%] | Binder |
| --- | --- |
| 1 | B1 |
| 1 | B2 |
| 0 | B3 |
| 3 | B4 |

biological target: T2, Human LIGHT stably expressed on EL4 cells (EL4-LIGHT) (human, UniProt O43557 1-240); experiment: flow cytometry, EL4-LIGHT cells
T2 construct: whole, on cells; also called membrane LIGHT
T2 sequence (O43557 whole entry): as the sequence (O43557 whole entry R195A) above, with A195R counted along it
Procedure: The EC50 of the 7 mAbs were calculated from binding to EL4-LIGHT cells (FIG. 1). […] Non-linear regression analysis was performed to determine the functional binding affinity measurement or EC50 for each mAb. A range of functional affinities was observed.

| EC50 [nM] | Binder |
| --- | --- |
| 10.4 | B1 |
| 0.133 | B2 |
| 0.118 | B3 |
| 2.73 | B4 |

biological target: T2, Human LIGHT stably expressed on EL4 …; experiment: flow cytometry, against F19 and F23

| binding ratio, mAb to LIGHT trimer [mAb per LIGHT trimer] | Binder |
| --- | --- |
| 1 | B1 |
| 1 | B2 |
| 1 | B3 |
| 1 | B4 |

Biological target: T1, Human LIGHT-32L, on II23 cells
Experiment: flow cytometry on II23-LIGHT 32L cells, 4 ug mAb in 100 uL, goat anti-human Fc gamma-PE; signal as % of the commercial anti-LIGHT-PE
Procedure: The cells were suspended at 1×10⁷ cells/ml and 100 uL aliquots were placed into wells of a 96-well plate, the cells spun down and washed in FACS buffer at 1800 rpm for 2 min. The cells were blocked with 1:100 dilution of anti-CD16/CD32 (eBioscience, San Diego, USA) in FACS buffer for 20 min at room temperature and then washed 1× in FACS buffer at 1800 rpm for 2 min. The cells were then resuspended in 100 uL FACS buffer+4 ug anti-membrane LIGHT mAbs or anti-LIGHT-PE (eBioscience, lot: E01621-1632) for 30 min in the dark at room temperature, followed by washing 1× in FACS buffer at 1800 rpm for 2 min and then resuspended in 100 uL FACS buffer plus 1:100 goat anti-human Fcγ-PE secondary antibody or no secondary antibody at 4° C. in the dark for 30 min. The cells were again washed 1× in FACS buffer at 1800 rpm for 2 min and fixed in 200 uL 2% paraformaldehyde overnight at 4° C. and read on a flow cytometer.

| binding result | Binder |
| --- | --- |
| binds | B1 |
| binds | B2 |
| binds | B3 |
| binds | B4 |

biological target: LIGHT without residues 81-84, stably expressed on EL4 cells (EL4-NC-LIGHT); experiment: cell-based or functional assay

| IC50, inhibition of IL-8 secretion, HT-29 + EL4-NC-LIGHT cells [nM] | Binder |
| --- | --- |
| 2 | B2 |
| 1.9 | B3 |
| 1.8 | B4 |

biological target: T2, Human LIGHT stably expressed on EL4 …; experiment: flow cytometry, EL4-LIGHT cells; remark: another data set of the same source

| EC50 [nM] | Binder |
| --- | --- |
| 0.32 | B5 |
| 0.23 | B6 |
| 0.37 | B7 |
